These results are taken from US20240034813A1 (Janssen / Centocor, published 2024).

The target of experiment [1] is T1, recombinant cMet/HGFR with c-terminal His-tag, Cy5-labeled (UniProt P08581 25-932, limits assumed, Cy5 label (reacted with Cy5 Mono NHS Ester; sites not stated)).
T1 construct: Commercial protein; also called Cy5-c-MET; Cy5-labeled c-MET antigen; not shown: C-terminal His-tag
Put plainly: competitive TR-FRET (Eu-amivantamab/Cy5-c-MET), EC50 ratio vs Reference Material; Ex. 2 Formulation 2 (50 mM histidine), 1 month at 40 C. From the text: (§1) In this procedure, varying concentrations of unlabeled bispecific EGFR-cMet antibody sample compete with donor fluorophore (Europium (Eu) chelate) labeled bispecific EGFR-cMet antibody for binding to an acceptor fluorophore (Cy5)-labeled c-MET antigen. Excitation of the donor fluorophore results in a transfer of energy to the bound acceptor fluorophore (FRET process). The resultant FRET is detected by emission of light at 665 nm using a microplate reader capable of measuring time-resolved fluorescence. Sample dose response curves are compared to the Reference Material (RM).
(§2) c-MET Binding Materials and Methods. Certified commercial cMet, a recombinant cMet/HGFR with c-terminal His-tag is reacted with certified commercial Cy5 Mono NHS Ester to produce Cy5-labeled c-MET. Validated bispecific EGFR-cMet antibody is reacted with certified commercial Europium (Eu) chelate to produce Eu labeled bispecific EGFR-cMet antibody. […] Fluorescence is then measured by spectrophotometry at 665 nm, plotted against antibody concentration and analyzed by a four-parameter logistic model. The antibody concentration required to obtain half of the maximum fluorescence response (EC50) is determined for RM, assay control and samples. The potencies of assay control and samples are calculated based on the ratio of the sample (or control) and RM EC50 values and reported as a percentage activity relative to the RM.
A general note: Time-resolved FRET reads energy transfer from a long-lived donor to a nearby acceptor.

In experiment [2] the target is T2, recombinant human EGFR/ErbB1/HER1 with C-terminal His tag, Cy5-labeled (human, UniProt P00533 25-645, Cy5 label (reacted with Cy5 Mono NHS Ester; sites not stated)).
T2 construct: Commercial protein; also called Cy5-EGFR; Cy5-labeled EGFR antigen; not shown: C-terminal His tag
Put plainly: competitive TR-FRET (Eu-amivantamab/Cy5-EGFR), EC50 ratio vs Reference Material; Ex. 2 Formulation 3 (acetate), 3 months at 25 C.
Description: (§3) In this procedure, varying concentrations of unlabeled bispecific EGFR-cMet antibody sample compete with donor fluorophore (Europium (Eu) chelate) labeled bispecific EGFR-cMet antibody for binding to an acceptor fluorophore (Cy5)-labeled EGFR antigen. Excitation of the donor fluorophore results in a transfer of energy to the bound acceptor fluorophore (FRET process). The resultant FRET is detected by emission of light at 665 nm using a microplate reader capable of measuring time-resolved fluorescence. Sample dose response curves are compared to the RM.
as §2, with “EGFR” for “c-MET”, “EGFR,” for “cMet,”, “human EGFR/ErbB1/HER1” for “cMet/HGFR”, “C-terminal His tag” for “c-terminal His-tag”, “EGFR.” for “c-MET.”, “Eu-labeled” for “Eu labeled”

The target in experiment [3] is T2, recombinant human EGFR/ErbB1/HER1 with …. Put plainly: competitive TR-FRET (Eu-amivantamab/Cy5-EGFR), EC50 ratio vs Reference Material; Ex. 2 Formulation 1 (10 mM histidine), T0, 5 C table.
Description: as §3
as §2, with “EGFR” for “c-MET”, “EGFR,” for “cMet,”, “human EGFR/ErbB1/HER1” for “cMet/HGFR”, “C-terminal His tag” for “c-terminal His-tag”, “EGFR.” for “c-MET.”, “Eu-labeled” for “Eu labeled”

The target of experiment [4] is T1, recombinant cMet/HGFR with c-terminal …. The experiment can be described thus: competitive TR-FRET (Eu-amivantamab/Cy5-c-MET), EC50 ratio vs Reference Material; Ex. 12 drug product with rHuPH20, 3 months at 5 C.
Description: as §1, §2

Experiment [5] has the same target. The experiment can be described thus: competitive TR-FRET (Eu-amivantamab/Cy5-c-MET), EC50 ratio vs Reference Material; Ex. 2 Formulation 3 (acetate), 3 months at 40 C.
Description: as §1, §2

For experiment [6] the target is unchanged. The experiment can be described thus: competitive TR-FRET (Eu-amivantamab/Cy5-c-MET), EC50 ratio vs Reference Material; Ex. 11 drug product, 3 months at 5 C.
Description: as §1, §2

Experiment [7] shares this target. Put plainly: competitive TR-FRET (Eu-amivantamab/Cy5-c-MET), EC50 ratio vs Reference Material; Ex. 2 Formulation 2 (50 mM histidine), T0, 5 C table.
Description: as §1, §2

Experiment [8] has the same target. Put plainly: competitive TR-FRET (Eu-amivantamab/Cy5-c-MET), EC50 ratio vs Reference Material; Ex. 2 Formulation 1 (10 mM histidine), 3 months at 40 C.
Description: as §1, §2

B1: amivantamab (bispecific antibody, human IgG1, kappa)
heavy 1: not shown
light 1: not shown
heavy 2: not shown
light 2: DIQMTQSPSSVSASVGDRVTITCRASQGISNWLAWFQHKPGKAPKLLIYAASSLLSGVPSRFSGSGSGTDFTLTISSLQPEDFATYYCQQANSFPITFGQGTRLEIKRTVAAPSVFIFPPSDEQLKSGTASVVCLLNNFYPREAKVQWKVDNALQSGNSQESVTEQDSKDSTYSLSSTLTLSKADYEKHKVYACEVTHQGLSSPVTKSFNRGEC
notes: The samples tested were high concentration (160 mg/mL) formulations, fresh or stored or stressed; also called JNJ-61186372; bispecific EGFR-cMet antibody
As for B1, the “cMET Binding % activity relative to RM” value in experiment [1] was determined as 90%; in experiment [5], 85%; in experiment [7], 102%; in experiment [8] it was 67%. Moreover, the “EGFR Binding % activity relative to RM” value was 92% in experiment [2] and 103% in experiment [3]. The “cMET Binding activity relative to Reference Material (%)” value in experiment [4] and in experiment [6] was 97% in each case.
